± gives the half width of the 95% confidence interval.
Legend:
[1] = folding stability dG unfold (combined trypsin and chymotrypsin); higher = more stable
Procedure, shortened: (§1)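 Unfolding free energy was derived, per protease or combined, against a sequence-predicted unfolded-state K50 and a shared folded-state K50, starting from K50 inferred by Bayesian fitting of sequencing counts. Digestion with trypsin and chymotrypsin was carried out on designed mini-proteins under 80 residues without cysteine in a PA-tagged cDNA display construct. Only designs with AlphaFold2 dimer inter-PAE above 15 were kept.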

[2] = folding stability dG unfold from chymotrypsin proteolysis; higher = more stable
Procedure, shortened: as §1

[3] = folding stability dG unfold from trypsin proteolysis; higher = more stable
Procedure, shortened: as §1

Sequence	folding stability dG unfold [1]	folding stability dG unfold [2]	folding stability dG unfold [3]
SAGGSAGGSAGGGMRFTVEVEPGKVSYSPGIVNKNTPGSSVSEIITVTVVETNPEKLLLSAGGSAGGSAGGS [r10_654_JUSTAS]	0.211 ± 0.19 kcal/mol	0.638 ± 0.093 kcal/mol	-0.499 ± 0.29 kcal/mol
SAGGSAGGSAGGGMTITTTSSVSESDGGLTLSTTTTAFDPVTGTWTPLTTTTTTLPPTTSAGGSAGGSAGGS [r10_51_JUSTAS]	1.24 ± 0.053 kcal/mol	0.778 ± 0.041 kcal/mol	1.65 ± 0.065 kcal/mol
SAGGSAGGSAGGGMTPVTTTTTVTVSPDATPVNFTTPDGTTVTVTPVPSSDTATVTTTVSSAGGSAGGSAGG [r7_796_JUSTAS]	0.724 ± 0.06 kcal/mol	0.104 ± 0.03 kcal/mol	1.24 ± 0.06 kcal/mol
SAGGSAGGSAGGGMTVLSFTMPKEEVEKYFEEKGLDATEMTISPGPGDTYSVTVLDPGSSAGGSAGGSAGGS [r10_999_JUSTAS]	0.151 ± 0.12 kcal/mol	-0.0653 ± 0.17 kcal/mol	0.33 ± 0.089 kcal/mol
SAGGSAGGSAGGGNLALPPRYRITVRIEKDGSTSTVEFDSEEELAALDDPGLTVTEVREESAGGSAGGSAGG [r7_793_JUSTAS]	0.745 ± 0.11 kcal/mol	1.18 ± 0.036 kcal/mol	-0.743 ± 0.35 kcal/mol
SAGGSAGGSAGGGRMLLTETETIFSPSGGESVVTRLVTVFRPPPPVFLPDPEGRWSELVSAGGSAGGSAGGS [r10_330_JUSTAS]	0.856 ± 0.22 kcal/mol	0.769 ± 0.3 kcal/mol	0.999 ± 0.14 kcal/mol
SAGGSAGGSAGGGRVELELTFIREDGYAVKVRIEVDEDGNLRIEVEVVKLPPAASPEELSAGGSAGGSAGGS [r10_878_TrROS_Hall]	2.86 ± 0.088 kcal/mol	2.31 ± 0.072 kcal/mol	3.23 ± 0.14 kcal/mol
SAGGSAGGSAGGGSMLTVKVPETVPEYTSTDPATGKTYNVPPSVPVEVEGSPDSFSILLSAGGSAGGSAGGS [r10_46_JUSTAS]	1.01 ± 0.094 kcal/mol	0.842 ± 0.095 kcal/mol	1.21 ± 0.046 kcal/mol
SAGGSAGGSAGGGSMPVTERIPGSPSSVTTTTFPDGTVTTETTAGPPVTLSPAGGSTLVSAGGSAGGSAGGS [r10_664_JUSTAS]	1.08 ± 0.11 kcal/mol	1.09 ± 0.058 kcal/mol	0.97 ± 0.073 kcal/mol
SAGGSAGGSAGGGSMTLELPLPEWSEEEIEALAEELKKKGLKVKEIERDPESDVVRITVESAGGSAGGSAGG [r7_906_JUSTAS]	2.15 ± 0.11 kcal/mol	2.28 ± 0.078 kcal/mol	1.79 ± 0.1 kcal/mol
SAGGSAGGSAGGGSMTTTTLTFTVPPDVTPEEVRAALEAAGYGDVAVTREGNTWTVTVTSAGGSAGGSAGGS [r10_868_JUSTAS]	2.4 ± 0.1 kcal/mol	2.6 ± 0.039 kcal/mol	1.56 ± 0.049 kcal/mol
SAGGSAGGSAGGGSSGVSYGSVPIVIRDPSGNVVSTLTLRVYPDGTVVLEFPDGSLLLLSAGGSAGGSAGGS [r10_972_JUSTAS]	3.86 ± 0.087 kcal/mol	4.11 ± 0.045 kcal/mol	3.38 ± 0.081 kcal/mol
SAGGSAGGSAGGGSTTTTTETYPENGLIFTTTTTVFDDGSLSVTTTTSPLPLPPSPFIATSAGGSAGGSAGG [r7_103_JUSTAS]	1.05 ± 0.18 kcal/mol	0.394 ± 0.18 kcal/mol	1.29 ± 0.043 kcal/mol
SAGGSAGGSAGGGSVTIRVESPEEAVATAKELLEKLTGAKPEATPLNVVVEEPDGVATVESAGGSAGGSAGG [r7_387_JUSTAS]	0.378 ± 0.13 kcal/mol	-0.721 ± 0.18 kcal/mol	1.03 ± 0.058 kcal/mol
SAGGSAGGSAGGGSVVTTETSVSPNGVVTTTTTTTFLDPDGNPLGTTTTTTAHAAPPTTSAGGSAGGSAGGS [r10_403_JUSTAS]	2.12 ± 0.024 kcal/mol	1.8 ± 0.031 kcal/mol	2.58 ± 0.076 kcal/mol
SAGGSAGGSAGGGTVTLEIELKVKPGEKIKDLATGEEFEVKEGETVRIRITLPLPPAPEESAGGSAGGSAGG [r7_234_TrROS_Hall]	1.2 ± 0.17 kcal/mol	1.11 ± 0.078 kcal/mol	0.963 ± 0.068 kcal/mol
SAGGSAGGSAGGGVGIAEISFDPETQTVTIKAYNPETEEITEITIPVTNPLPLDLSDITSAGGSAGGSAGGS [r10_331_TrMRF]	0.725 ± 0.2 kcal/mol	0.858 ± 0.14 kcal/mol	0.477 ± 0.085 kcal/mol
SAGGSAGGSAGGGVKYRVLLPKDVNPEKAAELLKPYGVKVVSIEEVEEGFYLIEVEKPESAGGSAGGSAGGS [r10_591_TrMRF]	1.49 ± 0.13 kcal/mol	1.59 ± 0.13 kcal/mol	1.18 ± 0.032 kcal/mol

Sequence	folding stability dG unfold [1]	folding stability dG unfold [2]	folding stability dG unfold [3]
SAGGSAGGSAGGGVTLPTGDIVVPVEYTTTVPVLTYNPTLGVSYFFTLTVTTSSTVYVGLSAGGSAGGSAGG [r7_374_JUSTAS]	3.37 ± 0.082 kcal/mol	3.868 ± 0.026 kcal/mol	2.71 ± 0.057 kcal/mol
SAGGSAGGSAGGGWAEIEIKITIFVFDPGNMTLFMVTLEPRIEVPPVKRDPDNGKWKPDSAGGSAGGSAGGS [r10_815_TrROS]	3.81 ± 0.42 kcal/mol	3.92 ± 0.21 kcal/mol	2.86 ± 0.23 kcal/mol
SAGGSAGGSAGGIEKFLEKHPELKIKKEIKIKIPYKTKDGKEFEVEYKIFYLTSEDEEDSAGGSAGGSAGGS [r10_0_TrMRF]	2.36 ± 0.07 kcal/mol	2.74 ± 0.057 kcal/mol	1.39 ± 0.05 kcal/mol
SAGGSAGGSAGGIGDDGKVRVALLDKNGKVLGPVYVTKVEEGKIEVEAEPDYTLVLNLESAGGSAGGSAGGS [r10_1257_TrMRF]	0.329 ± 0.15 kcal/mol	0.487 ± 0.12 kcal/mol	-0.0768 ± 0.11 kcal/mol
SAGGSAGGSAGGIIIPPGAKIVSIEKEGDFVKIKVYIPGSKKIETFKFPKGVPIIFEPEASAGGSAGGSAGG [r11_774_TrMRF]	3.41 ± 0.15 kcal/mol	3.24 ± 0.075 kcal/mol	3.51 ± 0.28 kcal/mol
SAGGSAGGSAGGIKITPDIRELLRQQGKPFSEEEIQGIAKYIAKHFKEKGFEDVTIRIPWSAGGSAGGSAGG [r7_512_TrROS]	0.774 ± 0.14 kcal/mol	0.783 ± 0.2 kcal/mol	0.471 ± 0.17 kcal/mol
SAGGSAGGSAGGIRIEFPGMKFEIDEFDPPNGVITLRFPENGQELQIKFDSDGEITKITWSAGGSAGGSAGG [r7_553_TrROS]	2.25 ± 0.28 kcal/mol	1.94 ± 0.14 kcal/mol	2.05 ± 0.2 kcal/mol
SAGGSAGGSAGGIWITMRPDNPDEFIDALRKKGKIRIVEVEPKNGNVIMRVTLDGQPLTSAGGSAGGSAGGS [r10_695_TrROS]	0.368 ± 0.088 kcal/mol	0.53 ± 0.11 kcal/mol	0.0442 ± 0.14 kcal/mol
SAGGSAGGSAGGKATLGEDGFLVIEREVELPDGPYRPETLVIPLPELTPEEVERLLETESAGGSAGGSAGGS [r10_1096_TrMRF]	1.05 ± 0.096 kcal/mol	0.919 ± 0.044 kcal/mol	1.24 ± 0.13 kcal/mol
SAGGSAGGSAGGKDGYYKAIIELPGGEKREIVFKYEDFEEALKSLGIPLENVKIVKIEEGSAGGSAGGSAGG [r7_211_TrMRF]	3.48 ± 0.18 kcal/mol	3.49 ± 0.11 kcal/mol	3.3 ± 0.2 kcal/mol
SAGGSAGGSAGGKEYKLVKVKVKVEITLPKGSELLKKLGLSEEDVKFEFELEVVVLVKPSAGGSAGGSAGGS [r10_82_TrROS_Hall]	3.68 ± 0.23 kcal/mol	3.93 ± 0.074 kcal/mol	2.82 ± 0.21 kcal/mol
SAGGSAGGSAGGKIEIKTFPDGYVLAKIEFPDEDKALVILAKVKPNPGKVLEAIIRPADSAGGSAGGSAGGS [r10_613_TrMRF]	1.38 ± 0.097 kcal/mol	1.51 ± 0.062 kcal/mol	1.2 ± 0.025 kcal/mol
SAGGSAGGSAGGKIENWKITKVETKLHPNGFPYLVIELSNEKKKIRVLIYPNGELKAFEESAGGSAGGSAGG [r7_675_TrMRF]	3.82 ± 0.31 kcal/mol	4.07 ± 0.21 kcal/mol	2.8 ± 0.42 kcal/mol
SAGGSAGGSAGGKIIHPDLKKPLDVLEKFELIIGGKPYLFFLSRGEGELRLLVIPAGKESAGGSAGGSAGGS [r10_517_TrMRF]	2.15 ± 0.048 kcal/mol	2.53 ± 0.055 kcal/mol	1.54 ± 0.021 kcal/mol
SAGGSAGGSAGGKIYYLDKDLFVIDLPDPKTGKPIKIAIGGDPNRPDEILKLAKELAESSAGGSAGGSAGGS [r10_379_TrMRF]	-0.0301 ± 0.2 kcal/mol	-0.398 ± 0.26 kcal/mol	0.0383 ± 0.039 kcal/mol
SAGGSAGGSAGGKKIEIEFTVKILREPEPGELVPYEVKGKLEINIDPDGNLKIELKFEPGSAGGSAGGSAGG [r11_607_TrMRF]	3.06 ± 0.15 kcal/mol	3.26 ± 0.073 kcal/mol	2.81 ± 0.11 kcal/mol
SAGGSAGGSAGGKKIIKVPLKNAEKIKKELKKKYKIKKVKIEKNKDGSKYIYIEVEKPKSAGGSAGGSAGGS [r10_1219_TrROS_Hall]	1.5 ± 0.23 kcal/mol	1.69 ± 0.16 kcal/mol	0.939 ± 0.071 kcal/mol
SAGGSAGGSAGGKKIKIKINSPGNAEEVKKLLEPFGLEVDSIKENKNNPNLIIVEVNVESAGGSAGGSAGGS [r10_104_TrMRF]	0.242 ± 0.11 kcal/mol	0.563 ± 0.031 kcal/mol	-0.276 ± 0.11 kcal/mol

From the supplement of paper PMC12764529
